Reference: publication PMC6208366
pKd: −log10 of the molar value.

Legend:
[1] = biological target: human full-length Hsp90β (human) (UniProt P08238); assay: ITC; conditions: domain or fragment
[2] = biological target: IANBD-labeled Hsp90 M362C (human); assay: stopped-flow fluorescence; IANBD-labeled Hsp90 M362C (1 µM) mixed with equal volumes of FKBP51, FK1-FK2, FK2-TPR or buffer, pseudo-first-order, 37 °C, 25 mM sodium phosphate/300 mM NaCl pH 7.2; rates as fluorescence increase at 20 s

Chain of human full-length Hsp90β (human) (P08238 whole entry, the tested form may be a part): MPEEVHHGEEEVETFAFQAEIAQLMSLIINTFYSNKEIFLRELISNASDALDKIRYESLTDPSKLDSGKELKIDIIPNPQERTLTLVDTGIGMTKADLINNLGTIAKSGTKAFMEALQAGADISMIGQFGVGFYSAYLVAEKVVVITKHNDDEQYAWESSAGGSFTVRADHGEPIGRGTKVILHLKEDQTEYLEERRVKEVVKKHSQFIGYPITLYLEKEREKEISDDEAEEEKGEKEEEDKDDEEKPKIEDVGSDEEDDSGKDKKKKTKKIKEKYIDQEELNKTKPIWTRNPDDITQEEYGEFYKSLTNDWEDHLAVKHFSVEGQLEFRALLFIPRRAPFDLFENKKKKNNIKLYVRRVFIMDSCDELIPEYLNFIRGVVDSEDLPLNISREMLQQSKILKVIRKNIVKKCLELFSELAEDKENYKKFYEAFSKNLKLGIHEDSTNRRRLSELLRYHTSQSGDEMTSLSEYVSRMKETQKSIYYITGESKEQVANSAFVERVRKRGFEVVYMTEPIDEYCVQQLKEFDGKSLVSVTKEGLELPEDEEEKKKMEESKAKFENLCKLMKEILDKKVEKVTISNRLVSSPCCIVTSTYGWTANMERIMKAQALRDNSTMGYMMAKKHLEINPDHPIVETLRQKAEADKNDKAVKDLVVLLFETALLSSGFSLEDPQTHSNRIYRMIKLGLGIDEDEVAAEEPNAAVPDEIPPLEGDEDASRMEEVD
Chain of FK2-TPR (which lacks FK1) (Q13451 whole entry): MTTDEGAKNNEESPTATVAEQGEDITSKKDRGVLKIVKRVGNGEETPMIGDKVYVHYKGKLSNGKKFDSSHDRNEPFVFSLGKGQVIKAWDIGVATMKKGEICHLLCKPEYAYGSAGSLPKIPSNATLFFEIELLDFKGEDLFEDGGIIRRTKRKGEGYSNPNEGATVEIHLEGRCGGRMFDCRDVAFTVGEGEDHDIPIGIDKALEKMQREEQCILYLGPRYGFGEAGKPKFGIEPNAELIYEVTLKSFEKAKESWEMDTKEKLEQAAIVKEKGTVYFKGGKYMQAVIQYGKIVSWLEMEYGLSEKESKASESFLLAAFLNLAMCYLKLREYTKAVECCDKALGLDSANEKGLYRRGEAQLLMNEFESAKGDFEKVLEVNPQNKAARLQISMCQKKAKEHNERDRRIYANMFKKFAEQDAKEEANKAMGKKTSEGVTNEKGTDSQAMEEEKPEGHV

pKd [1] | ΔF (rate of Hsp90 binding, fluorescence increase) [2] [s⁻¹] | Substance
6.14 | – | FK2-TPR (which lacks FK1) (from UniProt Q13451 1-457)
– | 0.0027 | FK2-TPR (which lacks FK1) (from UniProt Q13451 1-457) (domain or fragment)
